Assay results published in patent US20190127480A1 (Regeneron, published 2019).

Assays:
[1] = biological target: human CD3 expressed on cells (Jurkat cells; human T-cells of PBMC) (human, UniProt P09693 23-182; P20963 22-164); assay: cell-based or functional assay
[2] = biological target: T1, human CD3 expressed on cells (Jurkat cells, a CD3+ human T-cell line; human PBMC T cells) (human, UniProt P07766 23-207; P04234 22-171); assay: FACS on Jurkat cells
T1 construct: Cell-surface CD3 within the T cell receptor complex
Procedure: FACS data was acquired using the following protocol: Cells at 2×10⁵ per well were incubated with serially diluted antibodies for 30 min on ice. Post incubation, cells were washed and secondary antibody was added and incubated for an additional 30 minutes. After incubation, cells were washed, re-suspended in cold PBS containing 1% BSA and analyzed by flow cytometry with viable Jurkat cells gated by side and forward scatters. The EC₅₀s for cell binding titration were determined using Prism software with values calculated using a 4-parameter non-linear regression analysis.

[3] = biological target: T2, Soluble heterodimeric CD3 protein (hCD3-epsilon/hCD3-delta) with either a human Fc tag (hFcΔAdp/hFc) or a … (human, UniProt P07766 23-126; P04234 22-105); assay: SPR Biacore 25C antigen-capture
T2 construct: also called hCD3ε/δ; not shown: Fc tag: human (hFcΔAdp/hFc)
How it was run: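 Rate constants fitted to a 1:1 model, giving KD as kd/ka and dissociative half-life as ln2/(60·kd) minutes. Antibodies flowed over CD3ε/δ heterodimer captured on anti-human or anti-mouse Fc surfaces, run on a Biacore T200 at 25 °C.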

human CD3 expressed on cells (Jurkat cells; human T-cells of PBMC), sequence (chain, as listed by the source, chain 1 of 4): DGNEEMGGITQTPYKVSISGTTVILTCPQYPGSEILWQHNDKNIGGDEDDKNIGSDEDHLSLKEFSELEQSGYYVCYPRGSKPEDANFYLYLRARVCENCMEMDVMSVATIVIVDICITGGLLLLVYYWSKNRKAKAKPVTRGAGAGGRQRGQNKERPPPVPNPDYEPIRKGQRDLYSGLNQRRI
human CD3 expressed on cells (Jurkat cells; human T-cells of PBMC), sequence (chain, as listed by the source, chain 2 of 4): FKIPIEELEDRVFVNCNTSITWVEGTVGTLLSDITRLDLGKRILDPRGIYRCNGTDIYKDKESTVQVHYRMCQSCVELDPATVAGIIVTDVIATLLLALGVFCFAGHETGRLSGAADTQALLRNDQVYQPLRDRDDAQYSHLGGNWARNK
human CD3 expressed on cells (Jurkat cells; human T-cells of PBMC), sequence (P09693 23-182, chain 3 of 4): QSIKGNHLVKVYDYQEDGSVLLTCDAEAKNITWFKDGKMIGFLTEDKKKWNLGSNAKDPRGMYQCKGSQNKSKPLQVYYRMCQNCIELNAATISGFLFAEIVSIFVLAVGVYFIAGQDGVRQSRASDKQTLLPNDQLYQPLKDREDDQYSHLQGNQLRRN
human CD3 expressed on cells (Jurkat cells; human T-cells of PBMC), sequence (P20963 22-164, chain 4 of 4): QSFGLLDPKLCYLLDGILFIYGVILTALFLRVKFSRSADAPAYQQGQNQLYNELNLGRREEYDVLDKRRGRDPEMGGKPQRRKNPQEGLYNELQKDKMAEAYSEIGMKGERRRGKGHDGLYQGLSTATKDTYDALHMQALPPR
T2 sequence (P07766 23-126 limits assumed, stated change not applied, chain 1 of 2): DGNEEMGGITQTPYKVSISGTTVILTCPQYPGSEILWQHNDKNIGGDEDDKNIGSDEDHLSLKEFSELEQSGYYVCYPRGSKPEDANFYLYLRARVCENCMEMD
T2 sequence (P04234 22-105 limits assumed, stated change not applied, chain 2 of 2): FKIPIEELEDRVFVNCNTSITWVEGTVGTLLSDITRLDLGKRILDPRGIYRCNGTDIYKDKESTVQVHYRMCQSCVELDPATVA
T1 sequence (P07766 23-207 limits assumed, chain 1 of 2): as the sequence (chain, as listed by the source, chain 1 of 4) above
T1 sequence (P04234 22-171 limits assumed, chain 2 of 2): as the sequence (chain, as listed by the source, chain 2 of 4) above

| Binder | U937 Cytotoxicity Human T-cells [1] [pM] | further results |
| --- | --- | --- |
| H2M3548N (antibody, mouse IgG2, V domains shown) VH: EVQLVESGGGLVQPGRSLRLSCAASGFKFADYAMHWVRQAPGKGLEWVSEISWNSGSIGYVDSVKGRFTISRDNAKNSLYLQMNSLRAEDTALYYCVKDKSGYGHYYIGMDVWGQGTTVIVSS VL: not shown | 5.5 |  |
| H2M3541N (antibody, mouse IgG2, V domains shown) VH: EVQLVESGGGLVRPGRSLRLSCAASGFTFDDYTMHWVRQAPGKGLEWVSDISWNSGTIGYADSVKGRFTISRDNAKNSLYLQMNSLRPEDTALYYCAKDMSGYAHYYYYGMDVWGQGTTVTVSS VL: not shown | 53.9 |  |
| H1M3549N (antibody, mouse IgG1, V domains shown, H1M: mouse IgG1 Fc, human variable regions; divalent) VH: EVQLVESGGGLVQPGRSLRLSCVASGFPFADYTMHWVRQAPGKGLEWVSDISWNSGSIGYADSVKGRFTISRDNAKNSLYLQMNSLRTEDTALYYCAKDMSGYAHYFYYGMDVWGQGTTVTVSS VL: not shown |  | EC50 [2]: 2.3 nM; Kd [3]: 1.03 nM; T½ [3]: 40 min; koff [3]: 0.000289 s⁻¹; kon [3]: 281000 M⁻¹ s⁻¹ |
| H1M3613N (antibody, mouse IgG1, V domains shown) VH: EVQLVESGGGLVQPGRSLKLSCTASGFTFADYTMHWVRQGPGKGLEWVSDISWNSGSKGYADSVKGRFTISRDNAKNSLYLQMNSLRTEDTALYYCAKDMSGYAHYYYYALDVWGQGTTVTVSS VL: not shown | 866 |  |
| H1M3542N (antibody, mouse IgG1, V domains shown) VH: EVQLVESGGGLVQPGRSLRLSCVASGFPFADYTMHWVRQAPGKGLEWVSDISWNSGSKGYADSVKGRFTISRDNAKNSLYLQMNSLRTEDTAFYYCAKDMSGYAHYFYYGMDVWGQGTTVTVSS VL: not shown | 29.2 |  |
| H1M3549N (antibody, mouse IgG1, V domains shown) VH: EVQLVESGGGLVQPGRSLRLSCVASGFPFADYTMHWVRQAPGKGLEWVSDISWNSGSIGYADSVKGRFTISRDNAKNSLYLQMNSLRTEDTALYYCAKDMSGYAHYFYYGMDVWGQGTTVTVSS VL: not shown | 107 |  |
| H1M3542N (antibody, mouse IgG1, V domains shown, H1M: mouse IgG1 Fc, human variable regions; divalent) VH: EVQLVESGGGLVQPGRSLRLSCVASGFPFADYTMHWVRQAPGKGLEWVSDISWNSGSKGYADSVKGRFTISRDNAKNSLYLQMNSLRTEDTAFYYCAKDMSGYAHYFYYGMDVWGQGTTVTVSS VL: not shown |  | EC50 [2]: 2.01 nM; Kd [3]: 0.457 nM; T½ [3]: 58 min; koff [3]: 0.0002 s⁻¹; kon [3]: 437000 M⁻¹ s⁻¹ |
| H2M2779N (antibody, V domains shown) VH: EVQLVESGGGLVQPGGSLRLSCAATGFTFDDFTMHWVRQAPGKGLEWVSGISWNSGSIGYVDSVKGRFTISRDNAKNSLYLQMNSLRAEDTALYYCAKDNSGYGYYYYGMDVWGQGTTVTVSS VL: not shown | 675 |  |
| H2M2710N (antibody, V domains shown) VH: QVQLVESGGGVVQPGRSLRLSCAASGFTFRSFGMHWVRQAPGRGLEWVAMIYFDGKNKYYADSVRGRFTISRDNSKNTLYLEMSSLRAEDTAVYFCARGPGYNWLDPWGQGTLVTVSS VL: EIVMTQSPATLSVSPGERATLSCRASQSVSRNLAWYQQKPGQAPRLLIYGASTRATGVPARFSGSGSGTEFTLTISSLQSEDFAVFHCQQYNNRPLTFGGGTEVEIK | 3.97 |  |
| H2M2862N (antibody, mouse IgG2, V domains shown) VH: QVQLVESGGGVVQPGRSLRLSCAASGFTFRSYGMHWVRQAPGKGLEWVAMIYYDGNNKKYADSVRGRFTISRDNSKNTLYLQMNSLRVEDTAVYFCARGPGYNWLDPWGQGTLVTVSS VL: EIVMTQSPATLSVSPGERATLSCRASQSVSRNLAWYQQKPGQAPRLLIYGASTRATDIPARFSGSGSGTEFILNISSLQSEDFALYYCQQYSNWPLTFGGGTEVEIK | 7.66 |  |
| H2M2711N (antibody, V domains shown) VH: QVQLVESGGGVVQPGRSLRLSCAASGFTFRSFGMHWVRQAPGRGLEWVAMIYFDGKNKYYADSVRGRFTISRDNSKNTLYLEMSSLRAEDTAVYFCARGPGYNWLDPWGQGTLVTVSS VL: EIVMTQSPATLSVSPGERATLSCRASQSVSRNLAWYQQKPGQAPRLLIYGASTRATGVPARFSGSGSGTEFTLTISSLQSEDFAVFHCQQYNNRPLTFGGGTEVEIK | 3.66 |  |
| H2M2886N (antibody, mouse IgG2, V domains shown) VH: QVQLVESGGGVVQPGRSLRLSCAASGFTFRSFGMHWVRQAPGRGLEWVAMIYFDGKNKYYADSVRGRFTISRDNSKNTLYLEMSSLRAEDTAVYFCARGPGYNWLDPWGQGTLVTVSS VL: EIVMTQSPATLSVSPGERVILSCRASQSISRNLAWYQQKPGQAPRLLIYGATTRATGVPARFSGSGSGTEFTLTISSLQSEDFAVFYCQQYNNRPLTFGGGTEVEIK | 8.06 |  |
| H2M2774N (antibody, mouse IgG2, V domains shown) VH: QVQLVESGGGVVQPGRSLRLSCVASGFTFRSYGMHWVRQAPGKGLQWVAMIYYDGKNKYYADSVRGRFTISRDNSKNTLYLQMNSLRAEDTAMYFCARGPGYNWLDPWGQGTLVTVSS VL: EIVMTQSPATLSVSPGERATLSCRASQRISSNLAWYQQKPGQAPRLLIYGASTRATGSPARFSGSGSGTEFTLTISSLQSEDVAVYYCQQHNNWPLTFGGGTKVEIK | 2.46 |  |
| H2M2885N (antibody, mouse IgG2, V domains shown) VH: QVQLVESGGGVVQPGRSLRLSCAASGFTFRSFGMHWVRQAPGRGLEWVAMIYFDGKNKYYADSVRGRFTISRDNSKNTLYLEMSSLRAEDTAVYFCARGPGYNWLDPWGQGTLVTVSS VL: EIVMTQSPATLSVSPGERVILSCRASQSISRNLAWYQQKPGQAPRLLIYGATTRATGVPARFSGSGSGTEFTLTISSLQSEDFAVFYCQQYNNRPLTFGGGTEVEIK | 3.71 |  |
| H1M2712N (antibody, mouse IgG1, V domains shown) VH: EVQLVESGGGLVQPGGSLRLSCAATGFTFDDFTMHWVRQAPGKGLEWVSGISWNSGSIGYVDSVKGRFTISRDNAKNSLYLQMNSLRAEDTALYYCAKDNSGYGYYYYGMDVWGQGTTVTVSS VL: EIVMTQSPATLSVSPGERATLSCRASHSVSRNSAWYQQKPGQAPRLLIYGASTRATGIPARFSGSGSGTEFTLTISSLQSEDFAIYYCQQYNNWPLTFGGGTKVEIK | 314 |  |
| H2M2775N (antibody, mouse IgG2, V domains shown) VH: QVQLVESGGGVVQPGRSLRLSCAASGFTFRSFGMHWVRQAPGRGLEWVAMIYFDGKNKYYADSVRGRFTISRDNSKNTLYLEMSSLRAEDTAVYFCARGPGYNWLDPWGQGTLVTVSS VL: EIVMTQSPATLSVSPGERVILSCRASQSISRNLAWYQQKPGQAPRLLIYGATTRATGVPARFSGSGSGTEFTLTISSLQSEDFAVFYCQQYNNRPLTFGGGTEVEIK | 3.38 |  |
| H2M2777N (antibody, mouse IgG2, V domains shown) VH: QVQLVESGGGVVQPGRSLRLSCIASGFTFRSYGMHWVRQAPGKGLEWVAMIYYDGNNKYYADSVRGRFTISRDNSKNTLYLQMNSLRADDTAVYFCARGPGYNWLDPWGQGTLVTVSS VL: EIVMTQSPATLSVSPGERATLSCRASQSVSSNLAWYQQKPGQAPRLLIYGASTRATGIPARFSGSGSGTEFTLTISSLQSEDFAVYYCQQYNNRPLTFGGGTKVEIK | 4.86 |  |
| H2M2778N (antibody, mouse IgG2, V domains shown) VH: EVQLVESGGGLVQPGRSLRLSCAASGFTFDDYSMHWVRQAPGKGLEWVSGISWNSRSIDYADSVKGRFTISRDNAKNSLYLQMNSLRAEDTALYYCVKDNSGYGRYYYYGMDVWGQGTTVSVSS VL: KIVMTQSPATLSVSPGERATLSCRASQSVSGNLAWYQQKPGQAPRLLIYGASTRATSIPARFSGSGSGTEFTLTISSLQSEDFAVYFCQHYYNWPLTFGGGTKVEIR | 0 |  |
| H1M3544N (antibody, mouse IgG1, V domains shown) VH: EVQLVESGGGLVQPGRSLRLSCAASGFTFDDYTMHWVRQVPGKGLEWVSGISWNSGSLAYADSVKGRFTISRDNAKNSLYLQMNSLHPEDTALYYCVKDGSGYGHYSYYGLDVWGQGTTVTVSS VL: not shown | 172 |  |
| H2M3540N (antibody, mouse IgG2, V domains shown) VH: QVHLEESGGGVVQPGRSLRLSCSASGFTFSSYAMHWVRQAPGKGLEWVAVIWYDGTNKYYLDSVKGRFTISRDNSKNTLFLQMNSLRAEDTAVYYCARDRGSIITHWGQGTLVTVSS VL: DIQMTQSPSSLSASIGDRVTITCRASQNISSYLNWYQQKPGKAPKLLIYAASSLQSGVPSRFSGSGSGTDFTLTISSLQPEDFATYYCQQTYSTPPITFGQGTRLEIK | 12.5 |  |
| H2M3543N (antibody, mouse IgG2, V domains shown) VH: EVQLVESGGGLVQPGRSLRLSCAASGFTFDDYTMHWVRQAPGKGLEWVSDISWNSGSIGYADSVKGRFTVSRDNAKNSLYLQMNSLRGEDTALYYCAKDMSGYAHYGYYGMDVWGQGTTVTVSS VL: DIQMTQSPSSLSASVGDRVTITCRASQSIRNYLNWYQQKPGKVPKLLIYAASSLQSGVPSRFSGSGSGTDFTLTISSLQPEDFATYYCQQSYSNPPITFGQGTRLEIK | 13.1 |  |
